According to FireProtDB (doi:10.1006/jmbi.1995.0616):

Conditions: Hordeum vulgare; pH 6.25; 25 °C; GdnHCl; Fluorescence; MES 50 mM; reversible: yes; whole UniProt chain shown

B1: Subtilisin-chymotrypsin inhibitor-2A wild type, P01053 (protein)
chain: MSSVEKKPEGVNTGAGDRHNLKTEWPELVGKSVEEAKKVILQDKPEAQIIVLPVGTIVTMEYRIDRVRLFVDKLDNIAQVPRVG
  denaturant m value: 1.9 kcal/mol/M
  denaturant midpoint (higher = more stable): 4 M
  unfolding free energy: 7.6 kcal/mol
